Measured values reported in PMC9080902 (Journal of thrombosis and haemostasis : JTH, 2021).

B1: GST-fused PH domain of kindlin-3 (351–476) (domain or fragment, UniProt Q86UX7-2 351-476, looked up)
chain: ELKDHLRIFRPRKLTLKGYRQHWVVFKETTLSYYKSQDEAPGDPIQQLNLKGCEVVPDVNVSGQKFCIKLLVPSPEGMSEIYLRCQDEQQYARWMAGCRLASKGRTMADSSYTSEVQAILAFLSLQ
B2: GST-fused PH domain of kindlin-2 (374–499) (domain or fragment, UniProt Q96AC1 374-499, looked up)
chain: ELADYIKVFKPKKLTLKGYKQYWCTFKDTSISCYKSKEESSGTPAHQMNLRGCEVTPDVNISGQKFNIKLLIPVAEGMNEIWLRCDNEKQYAHWMAACRLASKGKTMADSSYNLEVQNILSFLKMQ
B3: GST-fused PH domain of kindlin-1 (374–496) (domain or fragment, UniProt Q9BQL6 374-496, looked up)
chain: DNLKLFRPKKLLPKAFKQYWFIFKDTSIAYFKNKELEQGEPLEKLNLRGCEVVPDVNVAGRKFGIKLLIPVADGMNEMYLRCDHENQYAQWMAACMLASKGKTMADSSYQPEVLNILSFLRMK

These binders were tested against flag-tagged paxillin (UniProt P49023 1-591) (assay: BLI).
Sequence of flag-tagged paxillin (P49023 whole entry): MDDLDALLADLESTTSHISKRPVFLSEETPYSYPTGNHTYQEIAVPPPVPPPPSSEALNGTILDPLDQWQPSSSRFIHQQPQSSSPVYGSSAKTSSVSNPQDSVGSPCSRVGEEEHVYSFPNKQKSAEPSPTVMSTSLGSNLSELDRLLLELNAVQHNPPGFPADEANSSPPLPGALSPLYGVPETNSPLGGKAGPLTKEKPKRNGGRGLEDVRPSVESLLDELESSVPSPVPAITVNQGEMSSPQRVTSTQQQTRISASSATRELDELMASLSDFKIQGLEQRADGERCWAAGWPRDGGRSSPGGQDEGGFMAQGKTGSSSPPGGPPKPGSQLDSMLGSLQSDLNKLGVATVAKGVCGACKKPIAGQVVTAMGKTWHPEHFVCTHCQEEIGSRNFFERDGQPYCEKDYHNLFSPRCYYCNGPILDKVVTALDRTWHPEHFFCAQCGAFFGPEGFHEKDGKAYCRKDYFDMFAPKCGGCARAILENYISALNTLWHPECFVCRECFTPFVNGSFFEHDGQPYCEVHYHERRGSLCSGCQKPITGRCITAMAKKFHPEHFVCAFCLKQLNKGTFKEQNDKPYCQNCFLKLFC

Binder	Kd
B1	7.6 µM
B2	23.5 µM
B3	14.2 µM
